This is an account of results in patent US20130028895A1, “EXOSOME INHIBITING AGENTS AND USES THEREOF” (priority 2011, published 2013).

The subject of data set [1] is OCI-Ly1 lymphoma cells. Nature of the data set: Inhibition of exosome shedding by inhibitors (AChE activity, flotillin-2 Western blot). It is filed as cell-based, human. To be noted: non-toxic dose ranges, 24 h. The method, then: (§1) […] lymphoma cells were exposed to inhibitors of exosome synthesis or release at non-toxic dose ranges. Exosomes were harvested after a 24 h incubation period, and yields were measured by AChE activity (a) and detection of flotillin-2 by Western Blot (b). […] Significant differences to controls without inhibitors (one-way ANOVA with Dunn's post test) are marked with asterices, equivalent results were obtained for the cell lines Balm-3 and Su-DHL-4 (FIG. 10).
5×10^7 lymphoma cells were exposed to inhibitors of exosome synthesis or release at non-toxic dose ranges. Exosomes were harvested after a 24 h incubation period, and yields were measured by AChE activity. Significant differences to controls without inhibitors (one-way ANOVA) are marked with asterices.
(§2) Exosomes were prepared by differential centrifugation according to standard protocols (modified according to Valadi, H. et al. Nat. Cell Biol. 9, 654-659 (2007)). […] Exosomes were quantified by measuring whole protein according to standard protocols (BioRad-DC-Protein-Assay), Western blot detecting flotillin-2 in comparison with whole cells or control exosome preparations, and acetyl-cholin-esterase (AChE) activity as previously described (Savina, A., Fader, C. M., Damiani, M. T., & Colombo, M. I. Traffic. 6, 131-143 (2005)).

The subject of data set [2] is lymphoma cells. Nature of the data set: CDC susceptibility: inhibitors plus rituximab with 10% active human complement. In kind it is cell-based. As to conditions: concomitant incubation with rituximab. The method, then: as §1
(§3) After 24 hours at 37° C., cell viability was determined in triplicates by […] staining as described before. The effect on viability was expressed as the ratio of values from treated versus untreated samples, i.e. specific viability=100× absorbance with antibody treatment/absorbance of untreated control. To detect complement decomposition of C3 in supernatant of exosome coupled to beads, monoclonal antibody 13/15 was coated onto 96-well Medisorp plates (NUNC, Medisorp, Thermo Fisher Scientific) blocked, and washed. Subsequently, appropriately diluted supernatant of exosome:bead complex samples were added to the plate for 60 minutes, washed, and incubated with rabbit anti-C3d for 60 min. After washing, finally anti-rabbit Fc conjugated to horseradish peroxidase (anti-rFc-HRP) was added for 60 minutes, before a further washing and addition of TMB substrate solution. […]

Data set [3] addresses T1, exosomal CD20 (Homo sapiens, UniProt P11836).
T1 construct: endogenous in cells; host or cells: exosomes purified from culture supernatants of Balm-3 and Su-DHL-4 lymphoma cells
T1 sequence (P11836 1-297): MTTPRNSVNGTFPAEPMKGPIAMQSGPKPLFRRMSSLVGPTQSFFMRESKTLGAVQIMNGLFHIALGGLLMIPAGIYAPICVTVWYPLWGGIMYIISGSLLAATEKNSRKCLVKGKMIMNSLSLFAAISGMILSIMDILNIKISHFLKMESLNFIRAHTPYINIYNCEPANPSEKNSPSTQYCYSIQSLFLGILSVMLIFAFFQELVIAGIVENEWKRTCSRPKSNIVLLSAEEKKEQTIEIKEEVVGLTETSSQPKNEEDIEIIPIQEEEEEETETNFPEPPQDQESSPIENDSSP
Nature of the data set: Binding of therapeutic anti-CD20 antibodies to lymphoma exosomes (immunogold, Western blot, FACS of exosome-labelled beads). To be noted: purified exosome-labelled beads, Su-DHL-4. (In general: In western blotting, separated proteins are transferred to a membrane and probed.)
Method: Cells or exosomes coupled to beads were stained with fluorescence-labelled monoclonal antibodies, and analyzed by flow cytometry.
FACS analysis of exosomal surface proteins was carried out after exosomes were coupled to latex beads as previously described (Thery, C., Zitvogel, L., & Amigorena, S, Nat. Rev. Immunol. 2, 569-579 (2002)). Exosomes (40 μg protein) were incubated in 30 μl PBS with 4 μm aldehyde/sulfate latex beads (3 μl of a 4% w/v suspension, Invitrogen) for 15 min., and again for 2 h after addition of 500 μl PBS at room temperature (RT) under constant agitation. The reaction was stopped by addition of 100 μl 1M glycine for 30 min. at RT with gentle agitation, followed by three washes in PBS/0.5% w/v bovine serum albumin (BSA). Antibody staining followed the protocols for antibody staining of cells in suspension.
Detection of membrane-bound fluorescence were performed using standard protocols for flow cytometry. 1×10^5 cells per condition were washed once with PBS and thereafter incubated for 30 min at room temperature and protected from light with either primary antibody or isotype control (both 1:50).

The subject of data set [4] is ABCA3. As to the kind of experiment: Exosome release after silencing of ABCA3 by lentiviral shRNA. It is filed as cell-based, human. The method, then:
(§4) The effects were measured after incubation for 48 h by AChE activity (b, cell line Balm-3, significance tested by one-way ANOVA), whole exosomal protein (c, significance tested by Student's two-sample t-test), as well as flotillin-2 detection from exosome preparations in the cell culture supernatant (d). Addressing ABCA3 overexpression, 4×10^7 cells of HEK293A, the stable ABCA3 overexpressing cell line HEK293A-ABCA3, as well as K562 cells were incubated for 17 h in 36 ml of exosome-free cell culture medium, and exosome yields measured as total exosomal protein.
As small molecules were used at the concentrations indicated: mTOR inhibitor rapamycin, COX-2 inhibitor indometacin, cholesterol synthesis inhibitor U18666A (all from Sigma). As fluorescent dyes CalceinAM and PKH26 were applied (both from Molecular Probes). […]
as §2

Data set [5] concerns lymphoma cell lines. As to the kind of experiment: CDC susceptibility after RNAi silencing of ABCA3. It is filed as cell-based, human. As to conditions: rituximab in the presence of complement, vs lv GFP control. On the procedure:
as §4
as §3, with “min.” for “min. After washing, finally anti-rabbit Fc conjugated to horseradish peroxidase (anti-rFc-HRP) was added for 60 minutes, before a further washing and addition of TMB substrate solution.”

In the case of `CCN(CC)CCO[C@H]1CC[C@@]2(C)C(=CC[C@@H]3[C@@H]2CC[C@]2(C)C(=O)CC[C@@H]32)C1` [U18666A], the “exosome shedding / release” value in data set [1] is recorded as “Inhibition of Exosome Shedding”. Further, in data set [2], the “CDC susceptibility / cytolytic activity of rituximab” value was “Enhanced CDC Susceptibility”.
For the molecule “GA101: therapeutic anti-CD20 monoclonal antibody (type II, Roche)”, in data set [3], the “exosomal binding by FACS” value is reported as “Exosomal binding”.

B1: anti-ABCA3 shRNA: lentiviral shRNA silencing ABCA3, sequences SEQ ID NO: 1 and SEQ ID NO: 2 cloned into pLKO.1 (nucleic acid)
chain 1: CCGGGCCCAGCTCATTGGGAAATTTCTCGAGAAATTTCCCAATGAGCTGGGCTTTTTG
chain 2: AATTCAAAAAAAATTTCCCAATGAGCTGGGCCTCGAGGCCCAGCTCATTGGGAAATTT
modifications: the letters are possibly those of the target site
With B1, in data set [4] (48 h, AChE activity, whole exosomal protein, flotillin-2, Balm-3), the “exosome release vs mock transfected controls” value is listed as “decreased exosome release”. Besides, the “reduction of exosome release” value in data set [4] (Balm-3, Su-DHL-4 and OCI-Ly1) is reported as “approximately 50%”. Besides, the “susceptibility to CDC” value in data set [5] (listed as lentiviral RNAi) is on record as “significantly increased the susceptibility of the lymphoma cells to CDC-mediated lysis”; in data set [5] (listed as shRNA against ABCA3), “increased susceptibility of lymphoma cell lines to CDC”.
